Results reported in patent US20080050396A1 (SURVAC, published 2008).

B1: Bcl224 (peptide)
peptide: ALVGACITL
notes: The end of the range is worked out from the printed start and the peptide length
B2: bcl214 (peptide)
peptide: WLSLKTLLSL
notes: as for B1
B3: bcl172 (peptide)
peptide: NIALWMTEYL
notes: as for B1
B4: Bcl85 (peptide)
peptide: ALSPVPPVV
notes: as for B1
B5: bcl208 (peptide)
peptide: PLFDFSWLSL
notes: as for B1
B6: bcl124 (peptide)
peptide: FTARGRFATV
notes: as for B1
B7: bcl220 (peptide)
peptide: LLSLALVGA
notes: as for B1
B8: bcl180 (peptide)
peptide: YLNRHLHTWI
notes: as for B1
B9: bcl80 (peptide)
peptide: AAAGPALSPV
notes: as for B1
B10: bcl218 (peptide)
peptide: KTLLSLALV
notes: as for B1
B11: bcl222 (peptide)
peptide: SLALVGACI
notes: as for B1

Each binder was assayed against HLA-A2 (human) (assay: assembly assay: peptide stabilisation of HLA-A2 from T2 lysate, W6/32 immunoprecipitation).

In order of rising C50:
1. B1  0.7 µM
2. B4  1 µM
3. B6  1 µM
4. B7  1 µM
5. B11  1 µM
6. B3  2 µM
7. B10  2 µM
8. B2  3 µM
9. B5  7 µM
10. B8  15 µM
11. B9  36 µM
